In patent US8026218:
Like-named read-outs stand apart in the source and are kept apart here. Blank lines part the entries; values can stand above or below the substance they belong to.

Assays:
[1] = target: human NK1 receptor (human) (UniProt P25103); experiment: competition vs [3H]Substance P, hNK1 CHO cell membranes
rat NK1 receptor (rat) [2] = target: rat NK1 receptor (rat) (UniProt P14600); experiment: competition vs [3H]Substance P, rNK1 CHO cell membranes
[3] = target: human δ opioid receptor (human) (UniProt P41143); experiment: cell-based or functional assay
[4] = target: rat µ opioid receptor (rat) (UniProt P33535); experiment: cell-based or functional assay
[5] = target: human NK1 receptor (human) (UniProt P25103); experiment: radioligand competition vs [3H]substance P, membranes of hNK1 CHO cells
[6] = target: rat µ opioid receptor (rat) (UniProt P33535); experiment: radioligand competition vs [3H]DAMGO, membranes of rMOR cells
[7] = target: human δ opioid receptor (human) (UniProt P41143); experiment: radioligand competition vs [3H]DPDPE, membranes of hDOR cells
rat NK1 receptor (rat) [8] = target: rat NK1 receptor (rat) (UniProt P14600); experiment: radioligand competition vs [3H]substance P, membranes of rNK1 CHO cells
[9] = target: δ opioid receptor of the mouse isolated vas deferens (mouse) (UniProt P32300); experiment: cell-based or functional assay
[10] = target: guinea pig NK1 receptor (guinea pig) (UniProt P30547); experiment: cell-based or functional assay
[11] = target: µ opioid receptor of the guinea pig isolated ileum (guinea pig) (UniProt P97266); experiment: cell-based or functional assay
[12] = target: human δ opioid receptor (human) (UniProt P41143); experiment: radioligand saturation, hDOR cell membranes
[13] = target: human δ opioid receptor (human) (UniProt P41143); experiment: radioligand saturation, hDOR membranes
[14] = target: rat µ opioid receptor (rat) (UniProt P33535); experiment: cell-based or functional assay; remark: listed apart in the source
[15] = target: rat µ opioid receptor (rat) (UniProt P33535); experiment: radioligand saturation, rMOR membranes
[16] = target: rat µ opioid receptor (rat) (UniProt P33535); experiment: competition vs [3H]DAMGO, rMOR cell membranes
[17] = target: human δ opioid receptor (human) (UniProt P41143); experiment: competition vs [3H]DPDPE, hDOR cell membranes

δ opioid receptor of the mouse isolated vas deferens (mouse), sequence (P32300 whole entry, stated change not applied): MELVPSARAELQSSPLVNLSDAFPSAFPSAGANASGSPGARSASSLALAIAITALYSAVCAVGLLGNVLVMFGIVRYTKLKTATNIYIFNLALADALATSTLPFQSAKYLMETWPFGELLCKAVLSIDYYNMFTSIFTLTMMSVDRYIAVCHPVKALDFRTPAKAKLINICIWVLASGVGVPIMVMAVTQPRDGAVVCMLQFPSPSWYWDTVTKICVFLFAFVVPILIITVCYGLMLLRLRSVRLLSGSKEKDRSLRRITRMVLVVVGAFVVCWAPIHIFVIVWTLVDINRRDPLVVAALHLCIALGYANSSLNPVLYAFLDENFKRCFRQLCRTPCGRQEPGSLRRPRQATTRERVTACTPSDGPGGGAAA
human δ opioid receptor (human), sequence (P41143 whole entry, stated change not applied): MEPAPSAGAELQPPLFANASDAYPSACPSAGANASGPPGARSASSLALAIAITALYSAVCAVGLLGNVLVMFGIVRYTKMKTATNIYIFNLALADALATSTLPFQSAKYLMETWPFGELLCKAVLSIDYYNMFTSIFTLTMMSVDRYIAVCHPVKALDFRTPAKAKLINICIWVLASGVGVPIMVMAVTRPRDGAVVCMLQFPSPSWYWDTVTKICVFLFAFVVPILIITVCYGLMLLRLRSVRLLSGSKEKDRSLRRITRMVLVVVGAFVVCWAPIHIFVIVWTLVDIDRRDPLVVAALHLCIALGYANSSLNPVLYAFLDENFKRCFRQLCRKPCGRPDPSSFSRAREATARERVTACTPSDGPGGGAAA
human NK1 receptor (human), sequence (P25103 whole entry): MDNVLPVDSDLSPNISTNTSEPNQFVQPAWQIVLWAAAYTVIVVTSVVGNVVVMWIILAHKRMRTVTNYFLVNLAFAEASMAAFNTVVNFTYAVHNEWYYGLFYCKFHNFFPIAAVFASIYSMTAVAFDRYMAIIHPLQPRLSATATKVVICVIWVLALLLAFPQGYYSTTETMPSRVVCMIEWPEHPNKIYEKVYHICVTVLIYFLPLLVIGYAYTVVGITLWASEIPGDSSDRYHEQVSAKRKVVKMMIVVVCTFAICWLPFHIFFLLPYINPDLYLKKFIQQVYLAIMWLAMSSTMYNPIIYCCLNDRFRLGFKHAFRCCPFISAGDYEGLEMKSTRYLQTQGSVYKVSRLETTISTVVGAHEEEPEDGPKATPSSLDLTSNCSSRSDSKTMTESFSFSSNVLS
rat NK1 receptor (rat), sequence (P14600 whole entry): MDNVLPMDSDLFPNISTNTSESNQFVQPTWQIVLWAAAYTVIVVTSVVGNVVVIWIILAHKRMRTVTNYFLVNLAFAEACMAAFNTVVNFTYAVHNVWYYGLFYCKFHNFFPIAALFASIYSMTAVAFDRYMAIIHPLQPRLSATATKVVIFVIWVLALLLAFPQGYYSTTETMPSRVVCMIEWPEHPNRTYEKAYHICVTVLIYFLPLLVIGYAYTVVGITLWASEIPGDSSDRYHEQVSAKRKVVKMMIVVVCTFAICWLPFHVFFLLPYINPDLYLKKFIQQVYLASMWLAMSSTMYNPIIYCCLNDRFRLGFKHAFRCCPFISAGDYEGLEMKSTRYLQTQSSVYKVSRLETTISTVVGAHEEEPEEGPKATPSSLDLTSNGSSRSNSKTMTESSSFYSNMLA
rat µ opioid receptor (rat), sequence (P33535 whole entry): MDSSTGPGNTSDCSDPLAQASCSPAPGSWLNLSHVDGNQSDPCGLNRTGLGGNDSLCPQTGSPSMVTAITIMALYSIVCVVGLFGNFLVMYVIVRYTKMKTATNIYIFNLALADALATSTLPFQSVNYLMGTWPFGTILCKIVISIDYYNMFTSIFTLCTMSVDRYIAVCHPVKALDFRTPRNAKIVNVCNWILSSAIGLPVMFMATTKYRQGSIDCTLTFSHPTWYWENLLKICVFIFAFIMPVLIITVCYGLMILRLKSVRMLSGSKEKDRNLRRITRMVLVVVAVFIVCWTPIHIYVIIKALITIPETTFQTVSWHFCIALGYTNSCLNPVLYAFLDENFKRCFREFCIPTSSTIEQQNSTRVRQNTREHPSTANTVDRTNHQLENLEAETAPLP
guinea pig NK1 receptor (guinea pig), sequence (P30547 whole entry): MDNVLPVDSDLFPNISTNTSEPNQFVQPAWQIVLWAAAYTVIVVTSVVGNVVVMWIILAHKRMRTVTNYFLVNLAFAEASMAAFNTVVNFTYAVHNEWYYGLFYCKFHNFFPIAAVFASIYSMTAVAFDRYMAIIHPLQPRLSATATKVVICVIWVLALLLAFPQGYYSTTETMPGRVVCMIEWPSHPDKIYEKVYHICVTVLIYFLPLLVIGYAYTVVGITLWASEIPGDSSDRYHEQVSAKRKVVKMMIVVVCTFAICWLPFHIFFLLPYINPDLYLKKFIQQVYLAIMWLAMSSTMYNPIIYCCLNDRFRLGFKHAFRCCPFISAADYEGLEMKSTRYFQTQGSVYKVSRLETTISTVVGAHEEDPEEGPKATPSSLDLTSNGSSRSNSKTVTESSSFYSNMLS
µ opioid receptor of the guinea pig isolated ileum (guinea pig), sequence (P97266 whole entry): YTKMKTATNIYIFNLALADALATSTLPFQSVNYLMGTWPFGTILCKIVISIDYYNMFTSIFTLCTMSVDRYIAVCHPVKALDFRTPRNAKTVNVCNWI

Substance: Tyr-Gly-Trp-O-3′,5′(CF3)2-Bzl (peptide)
Ki [1]: 0.003 nM
Ki (rat NK1 receptor (rat) [2]): 0.36 nM

Substance: DMT-D-Ala-Trp-O-3′,5′(CF3)2-Bzl (NP48) (peptide)
MVD δ-agonist IC50 [9]: 408 nM

Substance: Tyr-D-Ala-Gly-pFPhe-O-3′,5′(CF3)2-Bzl (NP62) (peptide)
GPI SP-antagonist Ke [10]: 51.8 nM
MVD δ-agonist IC50 [9]: 184 nM

Substance: Tyr-D-Ala-Trp-O-3′,5′(CF3)2-Bzl (NP43) (peptide)
GPI µ-agonist IC50 [11]: 3.3 % at 1 µM
GPI SP-antagonist Ke [10]: 49.4 nM
MVD δ-agonist IC50 [9]: 5.5 % at 1 µM

Substance: DMT-D-Ala-Trp-O-3′,5′(CF3)2-Bzl (peptide)
GTP EC50 [3]: 11.5 nM
GTP EC50 [4]: 1.6 nM
Ki [1]: 0.016 nM
Ki [16]: 0.3 nM
Ki (rat NK1 receptor (rat) [2]): 0.28 nM
Ki [17]: 0.8 nM

Substance: Tyr-Gly-Trp-O-3′,5′(CF3)2-Bzl (NP42) (peptide)
GPI µ-agonist IC50 [11]: 2.6 % at 1 µM

Substance: Tyr[DCysGlyPheDCys]ProLeuTrpNHBn(CF3)2 (TY037) (peptide)
GTP binding hDOR EC50 [3]: 98.2 nM
GTP binding hDOR Emax [3]: 26%
GTP binding rMOR EC50 [4]: 52.9 nM
GTP binding rMOR Emax [4]: 8%
Ki [6]: 51.5 nM
Ki [7]: 7.8 nM
Ki (rat NK1 receptor (rat) [8]): 45.5 nM

Now from value to substance:

GTP binding hDOR EC50 [3]: 0.26 nM
GTP binding hDOR Emax [3]: 41.1%
GTP binding rMOR EC50 [4]: 53.8 nM
GTP binding rMOR Emax [4]: 51.4%
Ki [5]: 0.066 nM
Ki [6]: 112 nM
Ki [7]: 5 nM
Ki (rat NK1 receptor (rat) [8]): 7.75 nM
Substance: TyrDAlaGlyPheMetCLeuLeuTrpOBn(CF3)2 (TY021) (peptide)

MVD (δ) IC50 [9]: 2.7 nM
MVD (δ) opioid agonist IC50 [9]: 2.7 nM
Substance: Biphalin (peptide)

Kd [12]: 0.45 nM
Substance: c[D-Pen2,D-Pen5]enkephalin (peptide)

[35S]GTP-γ-S binding EC50 [3]: 1.6 nM
[35S]GTP-γ-S binding Emax [3]: 69%
[35S]GTP-γ-S binding LogEC50 [3]: -8.8
[35S]GTPγS binding EC50 [3]: 1.6 nM
[35S]GTPγS binding Emax [3]: 69%
[35S]GTPγS binding LogEC50 [3]: -8.8
Kd [13]: 0.45 nM
Substance: [3H]-c[D-Pen2,D-Pen5]enkephalin (peptide)

[35S]GTP-γ-S binding EC50 [4]: 37 nM
[35S]GTP-γ-S binding Emax [4]: 150%
[35S]GTP-γ-S binding LogEC50 [4]: -7.4
[35S]GTPγS binding EC50 [4]: 37 nM
[35S]GTPγS binding Emax [4]: 150%
[35S]GTPγS binding LogEC50 [4]: -7.4
[35S]GTP-γ-S binding LogEC50 [14]: -7.44
Kd [15]: 0.5 nM
Substance: [3H]-[D-Ala2,NMePhe4,Gly5-ol]enkephalin (peptide)

GTP EC50 [3]: 90.9 nM
GTP EC50 [4]: 168 nM
Ki [1]: 0.004 nM
Ki [16]: 178 nM
Ki (rat NK1 receptor (rat) [2]): 2.94 nM
Ki [17]: 100 nM
Substance: Tyr-D-Ala-Trp-O-3′,5′(CF3)2-Bzl (peptide)
